According to patent US20030157644A1 (MOUNT SINAI SCHOOL OF MEDICINE OF THE CITY UNIVERSITY OF …, published 2003):
Ends that are not written are not given here.

How the values were obtained:
[1] = biological target: T1, phospholipase C-β2 (human, UniProt Q00722 1-1185, Cascade Blue acetyl azide label on amines, labelling ratio 1:1 (FRET experiment only)); assay: cell-based or functional assay
[2] = biological target: T1, phospholipase C-β2; assay: fluorescence resonance energy transfer, DABMI-peptide and Cascade Blue-PLC-β2, with and without phospholipids
Method: The reaction was allowed to proceed for 30 minutes at room temperature before quenching with 5 mM DTT. The final labeling ratios, as determined by absorption, were 1:1 for CB-PLC-β2 and 0.8 for the two DABMI-peptides. Fluorescence spectra were taken on an ISS-PC7 (ISS Champaign, IL) photon counting spectrofluorometer using a 3×3 mm cuvette and exciting at 380 nm and scanning from 400-560 nm.
The stimulation by maximal concentration of peptide was non-additive with Gβγ stimulation (FIG. 5A, upper panel).

T1 sequence (Q00722 other isoform, or with tags, fused parts or gaps limits assumed): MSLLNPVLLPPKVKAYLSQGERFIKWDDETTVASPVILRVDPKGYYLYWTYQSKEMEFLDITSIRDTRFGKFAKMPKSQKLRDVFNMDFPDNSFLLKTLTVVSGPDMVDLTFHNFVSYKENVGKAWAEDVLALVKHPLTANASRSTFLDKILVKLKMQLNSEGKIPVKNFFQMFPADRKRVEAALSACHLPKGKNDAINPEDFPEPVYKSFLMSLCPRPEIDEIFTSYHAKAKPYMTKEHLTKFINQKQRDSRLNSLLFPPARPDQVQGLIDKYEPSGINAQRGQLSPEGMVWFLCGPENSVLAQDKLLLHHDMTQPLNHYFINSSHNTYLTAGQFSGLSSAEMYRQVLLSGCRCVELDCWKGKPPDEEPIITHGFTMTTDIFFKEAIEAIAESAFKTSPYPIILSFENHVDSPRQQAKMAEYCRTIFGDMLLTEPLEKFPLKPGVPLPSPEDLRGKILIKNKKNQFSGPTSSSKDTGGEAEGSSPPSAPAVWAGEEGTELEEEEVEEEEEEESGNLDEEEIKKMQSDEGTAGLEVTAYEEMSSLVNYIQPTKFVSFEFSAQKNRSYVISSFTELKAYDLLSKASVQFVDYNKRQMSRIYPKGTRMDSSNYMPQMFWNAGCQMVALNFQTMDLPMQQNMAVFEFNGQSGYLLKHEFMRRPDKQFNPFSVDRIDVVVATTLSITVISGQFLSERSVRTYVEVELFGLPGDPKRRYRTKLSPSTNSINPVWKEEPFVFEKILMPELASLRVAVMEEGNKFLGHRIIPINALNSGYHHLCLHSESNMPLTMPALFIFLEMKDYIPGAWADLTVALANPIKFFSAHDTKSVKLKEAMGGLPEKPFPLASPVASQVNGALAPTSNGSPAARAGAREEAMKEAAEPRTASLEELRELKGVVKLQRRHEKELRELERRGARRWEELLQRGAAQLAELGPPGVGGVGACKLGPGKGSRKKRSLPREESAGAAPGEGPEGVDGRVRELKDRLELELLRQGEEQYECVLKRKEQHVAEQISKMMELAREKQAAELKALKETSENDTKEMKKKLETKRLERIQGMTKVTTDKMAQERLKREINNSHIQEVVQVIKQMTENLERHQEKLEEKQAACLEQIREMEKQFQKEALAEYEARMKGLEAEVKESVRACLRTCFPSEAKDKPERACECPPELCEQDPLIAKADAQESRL

Binder	fold change in affinity of PLC-β2 stimulation against the Gβ 86-105 peptide [1]	binding result [2]
TTNKVHAIPLRSAWVMTCAY (not fully specified) [Gβ 86-105 peptide with S98 substituted with alanine]	~2 fold	
TTNKVHAIPLRRRWVMTCAY [S97,98R Gβ 86-105 peptide]	5 fold	
TTNKVHAIPLRSSWVNTCAY (also: DABMI maleimide label in FRET experiment, residue not given here, Synthetic peptide; also called m-TTN) [Gβ 86-105 M101N substituted peptide]		no binding
